Laboratory results published in PMC9582199, “Molecular architecture of the glycogen- committed PP1/PTG holoenzyme” (Nature Communications, 2022).
Like-named read-outs stand apart in the source and are kept apart here. Each block holds one molecule with its values, some of them ahead of it.

Tests used:
[1] = biological target: PP1 (Homo sapiens) (UniProt P62136); conditions: cited from earlier work
[2] = biological target: GM CBM21; conditions: cited from earlier work
Description: The same two sugar-binding sites have been identified in the crystal structures of Rhizopus oryzae CBM21[13],[14]; site II is the primary binding site, while site I has been hypothesized to contribute to the binding of long-chain soluble polysaccharides and insoluble starch or to the relaxation and unwinding of helical amylose[15],[16].

[3] = biological target: PP1 (Homo sapiens) (UniProt P62136); conditions: cited from earlier work; remark: listed apart in the source
[4] = biological target: T1, 6xHis-tagged PP1 7-330 (human, UniProt P62136 7-330); assay: grating-coupled interferometry (GCI); 6xHis-tagged PP1 7-330 captured on 4PCP-NTA WAVE chips (3600 pg/mm2 for PTG 81-107, 1600 pg/mm2 for PTG 81-132); peptides injected, 1:2 dilution series from 300 nM; 10 mM Hepes pH 7.2, 150 mM NaCl, 0.005% Tween 20, 0.2 mg/ml BSA; 25 °C; 100 µl/min; mass transport binding model; conditions: both partners purified
T1 construct: Serine/threonine-protein phosphatase PP1-alpha catalytic subunit, human, UniProt P62136, residues 7-330; Captured by its His tag on 4PCP-NTA chips; a TEV site lies between tag and protein; source: E. coli BL21 (DE3) pGro7, purified (Ni-NTA, SEC); not shown: His6, N-terminal, kept

[5] = biological target: T2, PP1 7-330 (Homo sapiens, UniProt P62136); assay: GCI binding of immobilized PTG constructs to PP1 as analyte; conditions: GCI titrations, compared with PTG peptides 81–107 and 81–132
T2 construct: reversibly capturing 6xHis-tagged PP1^7-330; host or cells: E. coli BL21 (DE3) pGro7
Experimental: Grating-coupled interferometry (GCI) experiments were performed using the Creoptix WAVE system, a new generation instrument for the high-sensitivity kinetics and affinity analysis of label-free molecular interactions based on the waveguide interferometry technology. Waveguide interferometry exceeds the sensitivity levels of Surface Plasmon Resonance (SPR). […] GCI allows getting high resolution even at very low signal levels with low noise without artificial data averaging and reliable kinetics below 1 pg/mm^2. By the lower immobilization levels that are required, it avoids mass transport limitations. It covers the broadest kinetic range with the capability of analyzing of the ultra-fast transition times (i.e. 150 ms). It allows the reliable determination of off-rates of 5 s^–1 and even faster, enabling off-rate screening of weakly binding analytes. GCI can be applied to a wide range of pharmacological targets, with improved results on very low molecular weight compounds, to the dimensions of metal ions[56].
WAVE chips are composed of four channels or cells. Borate buffer (100 mM sodium borate pH 9.0, 1 M NaCl) was used for chip conditioning. To evaluate the kinetics of the PTG interaction with β-cyclodextrin and PP1, PTG^70-264 (20 µg/ml in buffer acetate pH 5.0) was immobilized on 4PCH WAVE chips (quasiplanar polycarboxylate surface; Creoptix) by standard amine coupling according to the manufacturer’s instructions at a density of 1800 pg/mm^2 and 1000 pg/mm^2 for β-cyclodextrin and PP1^7-330, respectively (Supplementary Figs. 8, 9). Regeneration-free injections of a 1:3 dilution series from 500 µM for β-cyclodextrin in running buffer (10 mM Hepes pH 7.2, 150 mM NaCl, 0.005% Tween 20) were performed at 25 °C, using a flow rate of 100 μl/min. Similarly, regeneration-free injections of a 1:2 dilution series from 400 nM for PP1^7-330 in the same running buffer were performed at 25 °C, using a flow rate of 30 μl/min. […]
Supplementary Figure 3: Quantitative binding kinetics by GCI. […]

[6] = biological target: T3, PP1 7-330 (Serine/threonine-protein phosphatase PP1-alpha catalytic subunit, residues 7-330) (human, UniProt P62136 7-330); assay: grating-coupled interferometry (GCI); PTG 70-264 immobilised by amine coupling on a 4PCH WAVE chip at 1000 pg/mm2; PP1 7-330 injected, 1:2 dilution series from 400 nM; 10 mM Hepes pH 7.2, 150 mM NaCl, 0.005% Tween 20; 25 °C; 30 µl/min; mass transport binding model; conditions: both partners purified
T3 construct: Serine/threonine-protein phosphatase PP1-alpha catalytic subunit, human, UniProt P62136, residues 7-330; source: E. coli BL21 (DE3) pGro7, purified (Ni-NTA, SEC)

[7] = biological target: 6xHis-tagged PP1^7-330 (UniProt P62136 7-330, Mn2+ in active site (expressed and purified with MnCl2); N-terminal 6xHis tag used for capture, left out. Alpha isoform taken from the authors' PDB entries 7QFB/7QM2 and the residue numbering); assay: grating-coupled interferometry (GCI); 6xHis-tagged PP1 7-330 reversibly captured on 4PCP-NTA WAVE chip (3600 or 1600 pg/mm^2); peptides injected, 1:2 dilution series from 300 nM; 25 °C; 10 mM Hepes pH 7.2, 150 mM NaCl, 0.005% Tween 20, 0.2 mg/ml BSA; mass transport binding model; conditions: both partners purified
Sequence of 6xHis-tagged PP1^7-330 (P62136 7-330): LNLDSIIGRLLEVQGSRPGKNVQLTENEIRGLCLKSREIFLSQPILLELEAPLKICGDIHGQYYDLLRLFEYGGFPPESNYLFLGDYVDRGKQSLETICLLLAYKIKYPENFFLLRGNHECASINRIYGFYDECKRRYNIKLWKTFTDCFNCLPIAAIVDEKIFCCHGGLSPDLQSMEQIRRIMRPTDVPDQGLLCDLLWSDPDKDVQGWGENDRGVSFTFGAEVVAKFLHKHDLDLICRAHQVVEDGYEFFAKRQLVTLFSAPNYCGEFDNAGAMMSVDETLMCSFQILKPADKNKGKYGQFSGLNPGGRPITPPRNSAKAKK

T3 sequence (P62136 7-330): as above
T1 sequence (P62136 7-330): as above
T2 sequence (P62136 7-330): as above
Sequence of PP1 (Homo sapiens) (P62136 2-330): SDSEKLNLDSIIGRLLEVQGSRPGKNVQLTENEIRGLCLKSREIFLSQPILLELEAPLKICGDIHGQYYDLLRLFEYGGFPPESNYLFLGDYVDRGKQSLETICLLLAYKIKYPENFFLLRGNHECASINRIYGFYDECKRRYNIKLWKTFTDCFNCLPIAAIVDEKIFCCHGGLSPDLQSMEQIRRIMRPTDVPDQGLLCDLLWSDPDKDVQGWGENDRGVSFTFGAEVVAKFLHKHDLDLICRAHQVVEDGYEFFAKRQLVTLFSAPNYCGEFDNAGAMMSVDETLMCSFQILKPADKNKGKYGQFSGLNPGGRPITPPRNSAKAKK

- Kd [4]: 7.7 nM
- koff [4]: 0.0026 s⁻¹
- kon [4]: 357000 M⁻¹ s⁻¹
B1: PTG peptide 81-132 (peptide, UniProt Q9UQK1 81-132, looked up)
peptide: AKKRVVFADSKGLSLTAIHVFSDLPEEPAWDLQFDLLDLNDISSALKHHEEK
notes: also called peptide 2; source: synthetic peptide, bought: ProteoGenix SAS

- binding to PP1 (in words) [5]: no interaction was detected
- binding to PP1 (in words) ([5]; listed as isolated CBM21): undetectable binding
B2: CBM21 aa. 132–264: recombinant PTG carbohydrate-binding module 21, residues 132–264 (protein)
chain: KNLILDFPQPSTDYLSFRSHFQKNFVCLENCSLQERTVTGTVKVKNVSFEKKVQIRITFDSWKNYTDVDCVYMKNVYGGTDSDTFSFAIDLPPVIPTEQKIEFCISYHANGQVFWDNNDGQNYRIVHVQWKPD
modifications: left off: His6, N-terminal, cleaved

- binding to PP1 (in words) [5]: did not bind PP1 any better
B4: PTG70-264: recombinant human PTG residues 70–264, encompassing the PP1-binding region and the CBM21 (protein)
chain: SQNDWKCSHNQAKKRVVFADSKGLSLTAIHVFSDLPEEPAWDLQFDLLDLNDISSALKHHEEKNLILDFPQPSTDYLSFRSHFQKNFVCLENCSLQERTVTGTVKVKNVSFEKKVQIRITFDSWKNYTDVDCVYMKNVYGGTDSDTFSFAIDLPPVIPTEQKIEFCISYHANGQVFWDNNDGQNYRIVHVQWKPD
modifications: left off: GST, N-terminal, cleaved

- Kd [4]: 14.1 nM
- koff [4]: 0.00295 s⁻¹
- kon [4]: 208000 M⁻¹ s⁻¹
B5: PTG peptide 81-107 (peptide, UniProt Q9UQK1 81-107, looked up)
peptide: AKKRVVFADSKGLSLTAIHVFSDLPEE
notes: also called peptide 1; source: synthetic peptide, bought: ProteoGenix SAS

- Kd [7]: 14 nM
B6: PTG peptide 81-107 (peptide, UniProt Q9UQK1 81-107, looked up)
peptide: AKKRVVFADSKGLSLTAIHVFSDLPEE
notes: also called PTG N-terminal peptide; source: synthetic peptide, bought: ProteoGenix SAS

More lines, now with the values behind:

Molecule: GM 64-237 (from UniProt Q00756)
- Kd [1]: 21 nM

Molecule: OC[C@H]1O[C@@H]2O[C@H]3[C@H](O)[C@@H](O)[C@@H](O[C@H]4[C@H](O)[C@@H](O)[C@@H](O[C@H]5[C@H](O)[C@@H](O)[C@@H](O[C@H]6[C@H](O)[C@@H](O)[C@@H](O[C@H]7[C@H](O)[C@@H](O)[C@@H](O[C@H]1[C@H](O)[C@H]2O)O[C@@H]7CO)O[C@@H]6CO)O[C@@H]5CO)O[C@@H]4CO)O[C@@H]3CO [α-cyclodextrin]
- Kd [2]: 27600 nM

Molecule: GM 64-105 (from UniProt Q00756)
- Kd [3]: 114 nM

B3: PTG 70-264 (Protein phosphatase 1 regulatory subunit 3C, residues 70-264) (domain or fragment, human, UniProt Q9UQK1 70-264, looked up)
chain: B4 chain
notes: GST removed on the column with 3C protease; also called PPP1R3C; protein targeting to glycogen; source: E. coli, co-expressed with GroEL/ES (pGro7), purified (glutathione agarose, SEC); for the crystal co-expressed with PP1 7-300; not shown: GST, N-terminal, cleaved
- Kd [6]: 87 nM
- koff [6]: 0.0043 s⁻¹
- kon [6]: 50000 M⁻¹ s⁻¹
